Test results published in US7256012B2, “Fluorogenic protease substrates based on dye-dimerization” (3M Innovative Properties Company, priority 1997, dated 2007).

Biological target: T1, trypsin (Bos taurus, UniProt P00760)
T1 construct: gene PRSS1
T1 sequence (P00760 24-246): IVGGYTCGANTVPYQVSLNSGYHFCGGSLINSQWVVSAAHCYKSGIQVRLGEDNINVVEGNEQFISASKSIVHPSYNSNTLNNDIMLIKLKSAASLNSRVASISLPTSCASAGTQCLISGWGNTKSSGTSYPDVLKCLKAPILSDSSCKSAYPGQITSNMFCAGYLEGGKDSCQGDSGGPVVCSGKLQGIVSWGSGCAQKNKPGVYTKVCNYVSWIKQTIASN
Assay: Hydrolysis of fluorogenic protease substrate by purified enzyme (trypsin), fluorescence intensity
Format: biochemical
Settings: for Average ratio w/ trypsin to w/o trypsin: average over emission 570-585 nm
Experimental: Enzymatic hydrolysis of the substrate from Example 1 was carried out in 50 mM carbonate buffer, pH 8.9 at room temperature. Fluorescence intensity of the solution prior to treatment with trypsin and after treatment with trypsin is shown in Table 1, for excitation wavelengths of 360 nm, 522 nm, 530 nm, and 553 nm, respectively. […] This is a characteristic of dye dimerization or stacking, as described above. […] Both the fluorescence and absorption results provided convincing evidence that ground-state interactions existed between dye molecules in the conjugate and became diminished after enzymatic cleavage.

[1] = Excitation 360 nm, emission 570 nm
[2] = Excitation 360 nm, emission 571 nm
[3] = Excitation 360 nm, emission 572 nm
[4] = Excitation 360 nm, emission 573 nm
[5] = Excitation 360 nm, emission 574 nm
[6] = Excitation 360 nm, emission 575 nm
[7] = Excitation 360 nm, emission 576 nm
[8] = Excitation 360 nm, emission 577 nm
[9] = Excitation 360 nm, emission 578 nm
[10] = Excitation 360 nm, emission 579 nm
[11] = Excitation 360 nm, emission 580 nm
[12] = Excitation 360 nm, emission 581 nm
[13] = Excitation 360 nm, emission 582 nm
[14] = Excitation 360 nm, emission 583 nm
[15] = Excitation 360 nm, emission 584 nm
[16] = Excitation 360 nm, emission 585 nm
[17] = Excitation 522 nm, emission 570 nm
[18] = Excitation 522 nm, emission 571 nm
[19] = Excitation 522 nm, emission 572 nm
[20] = Excitation 522 nm, emission 573 nm
[21] = Excitation 522 nm, emission 574 nm
[22] = Excitation 522 nm, emission 575 nm
[23] = Excitation 522 nm, emission 576 nm
[24] = Excitation 522 nm, emission 577 nm
[25] = Excitation 522 nm, emission 578 nm
[26] = Excitation 522 nm, emission 579 nm
[27] = Excitation 522 nm, emission 580 nm
[28] = Excitation 522 nm, emission 581 nm
[29] = Excitation 522 nm, emission 582 nm
[30] = Excitation 522 nm, emission 583 nm
[31] = Excitation 522 nm, emission 584 nm
[32] = Excitation 522 nm, emission 585 nm
[33] = Excitation 530 nm, emission 570 nm
[34] = Excitation 530 nm, emission 571 nm
[35] = Excitation 530 nm, emission 572 nm
[36] = Excitation 530 nm, emission 573 nm
[37] = Excitation 530 nm, emission 574 nm
[38] = Excitation 530 nm, emission 575 nm
[39] = Excitation 530 nm, emission 576 nm
[40] = Excitation 530 nm, emission 577 nm
[41] = Excitation 530 nm, emission 578 nm
[42] = Excitation 530 nm, emission 579 nm
[43] = Excitation 530 nm, emission 580 nm
[44] = Excitation 530 nm, emission 581 nm
[45] = Excitation 530 nm, emission 582 nm
[46] = Excitation 530 nm, emission 583 nm
[47] = Excitation 530 nm, emission 584 nm
[48] = Excitation 530 nm, emission 585 nm
[49] = Excitation 553 nm, emission 570 nm
[50] = Excitation 553 nm, emission 571 nm
[51] = Excitation 553 nm, emission 572 nm
[52] = Excitation 553 nm, emission 573 nm
[53] = Excitation 553 nm, emission 574 nm
[54] = Excitation 553 nm, emission 575 nm
[55] = Excitation 553 nm, emission 576 nm
[56] = Excitation 553 nm, emission 577 nm
[57] = Excitation 553 nm, emission 578 nm
[58] = Excitation 553 nm, emission 579 nm
[59] = Excitation 553 nm, emission 580 nm
[60] = Excitation 553 nm, emission 581 nm
[61] = Excitation 553 nm, emission 582 nm
[62] = Excitation 553 nm, emission 583 nm
[63] = Excitation 553 nm, emission 584 nm
[64] = Excitation 553 nm, emission 585 nm

Average ratio w/ trypsin to w/o trypsin (Excitation 360 nm): 26
Fluorescence intensity w/ trypsin [1]: 8625
Fluorescence intensity w/o trypsin [1]: 319
ratio w/ trypsin to w/o trypsin [1]: 27
Fluorescence intensity w/ trypsin [2]: 8817
Fluorescence intensity w/o trypsin [2]: 347
ratio w/ trypsin to w/o trypsin [2]: 25
Fluorescence intensity w/ trypsin [3]: 9322
Fluorescence intensity w/o trypsin [3]: 369
ratio w/ trypsin to w/o trypsin [3]: 25
Fluorescence intensity w/ trypsin [4]: 9189
Fluorescence intensity w/o trypsin [4]: 365
ratio w/ trypsin to w/o trypsin [4]: 25
Fluorescence intensity w/ trypsin [5]: 9629
Fluorescence intensity w/o trypsin [5]: 354
ratio w/ trypsin to w/o trypsin [5]: 27
Fluorescence intensity w/ trypsin [6]: 9719
Fluorescence intensity w/o trypsin [6]: 410
ratio w/ trypsin to w/o trypsin [6]: 24
Fluorescence intensity w/ trypsin [7]: 9759
Fluorescence intensity w/o trypsin [7]: 401
ratio w/ trypsin to w/o trypsin [7]: 24
Fluorescence intensity w/ trypsin [8]: 9776
Fluorescence intensity w/o trypsin [8]: 378
ratio w/ trypsin to w/o trypsin [8]: 26
Fluorescence intensity w/ trypsin [9]: 9981
Fluorescence intensity w/o trypsin [9]: 379
ratio w/ trypsin to w/o trypsin [9]: 26
Fluorescence intensity w/ trypsin [10]: 9872
Fluorescence intensity w/o trypsin [10]: 392
ratio w/ trypsin to w/o trypsin [10]: 25
Fluorescence intensity w/ trypsin [11]: 9788
Fluorescence intensity w/o trypsin [11]: 361
ratio w/ trypsin to w/o trypsin [11]: 27
Fluorescence intensity w/ trypsin [12]: 9960
Fluorescence intensity w/o trypsin [12]: 375
ratio w/ trypsin to w/o trypsin [12]: 27
Fluorescence intensity w/ trypsin [13]: 9783
Fluorescence intensity w/o trypsin [13]: 376
ratio w/ trypsin to w/o trypsin [13]: 26
Fluorescence intensity w/ trypsin [14]: 9591
Fluorescence intensity w/o trypsin [14]: 347
ratio w/ trypsin to w/o trypsin [14]: 28
Fluorescence intensity w/ trypsin [15]: 9387
Fluorescence intensity w/o trypsin [15]: 385
ratio w/ trypsin to w/o trypsin [15]: 24
Fluorescence intensity w/ trypsin [16]: 9427
Fluorescence intensity w/o trypsin [16]: 353
ratio w/ trypsin to w/o trypsin [16]: 27
Average ratio w/ trypsin to w/o trypsin (Excitation 522 nm): 28
Fluorescence intensity w/ trypsin [17]: 40193
Fluorescence intensity w/o trypsin [17]: 1378
ratio w/ trypsin to w/o trypsin [17]: 29
Fluorescence intensity w/ trypsin [18]: 41416
Fluorescence intensity w/o trypsin [18]: 1525
ratio w/ trypsin to w/o trypsin [18]: 27
Fluorescence intensity w/ trypsin [19]: 42506
Fluorescence intensity w/o trypsin [19]: 1480
ratio w/ trypsin to w/o trypsin [19]: 29
Fluorescence intensity w/ trypsin [20]: 43406
Fluorescence intensity w/o trypsin [20]: 1509
ratio w/ trypsin to w/o trypsin [20]: 29
Fluorescence intensity w/ trypsin [21]: 44241
Fluorescence intensity w/o trypsin [21]: 1645
ratio w/ trypsin to w/o trypsin [21]: 27
Fluorescence intensity w/ trypsin [22]: 45037
Fluorescence intensity w/o trypsin [22]: 1643
ratio w/ trypsin to w/o trypsin [22]: 27
Fluorescence intensity w/ trypsin [23]: 45519
Fluorescence intensity w/o trypsin [23]: 1587
ratio w/ trypsin to w/o trypsin [23]: 29
Fluorescence intensity w/ trypsin [24]: 45648
Fluorescence intensity w/o trypsin [24]: 1672
ratio w/ trypsin to w/o trypsin [24]: 27
Fluorescence intensity w/ trypsin [25]: 45980
Fluorescence intensity w/o trypsin [25]: 1629
ratio w/ trypsin to w/o trypsin [25]: 28
Fluorescence intensity w/ trypsin [26]: 45745
Fluorescence intensity w/o trypsin [26]: 1673
ratio w/ trypsin to w/o trypsin [26]: 27
Fluorescence intensity w/ trypsin [27]: 45757
Fluorescence intensity w/o trypsin [27]: 1595
ratio w/ trypsin to w/o trypsin [27]: 29
Fluorescence intensity w/ trypsin [28]: 44936
Fluorescence intensity w/o trypsin [28]: 1665
ratio w/ trypsin to w/o trypsin [28]: 27
Fluorescence intensity w/ trypsin [29]: 44724
Fluorescence intensity w/o trypsin [29]: 1567
ratio w/ trypsin to w/o trypsin [29]: 29
Fluorescence intensity w/ trypsin [30]: 44076
Fluorescence intensity w/o trypsin [30]: 1599
ratio w/ trypsin to w/o trypsin [30]: 28
Fluorescence intensity w/ trypsin [31]: 43282
Fluorescence intensity w/o trypsin [31]: 1601
ratio w/ trypsin to w/o trypsin [31]: 27
Fluorescence intensity w/ trypsin [32]: 42928
Fluorescence intensity w/o trypsin [32]: 1527
ratio w/ trypsin to w/o trypsin [32]: 28
Average ratio w/ trypsin to w/o trypsin (Excitation 530 nm): 27
Fluorescence intensity w/ trypsin [33]: 46615
Fluorescence intensity w/o trypsin [33]: 1687
ratio w/ trypsin to w/o trypsin [33]: 28
Fluorescence intensity w/ trypsin [34]: 48314
Fluorescence intensity w/o trypsin [34]: 1718
ratio w/ trypsin to w/o trypsin [34]: 28
Fluorescence intensity w/ trypsin [35]: 49955
Fluorescence intensity w/o trypsin [35]: 1819
ratio w/ trypsin to w/o trypsin [35]: 27
Fluorescence intensity w/ trypsin [36]: 50871
Fluorescence intensity w/o trypsin [36]: 1844
ratio w/ trypsin to w/o trypsin [36]: 28
Fluorescence intensity w/ trypsin [37]: 52163
Fluorescence intensity w/o trypsin [37]: 1904
ratio w/ trypsin to w/o trypsin [37]: 27
Fluorescence intensity w/ trypsin [38]: 52681
Fluorescence intensity w/o trypsin [38]: 1895
ratio w/ trypsin to w/o trypsin [38]: 28
Fluorescence intensity w/ trypsin [39]: 52855
Fluorescence intensity w/o trypsin [39]: 1968
ratio w/ trypsin to w/o trypsin [39]: 27
Fluorescence intensity w/ trypsin [40]: 53752
Fluorescence intensity w/o trypsin [40]: 1939
ratio w/ trypsin to w/o trypsin [40]: 28
Fluorescence intensity w/ trypsin [41]: 53611
Fluorescence intensity w/o trypsin [41]: 1970
ratio w/ trypsin to w/o trypsin [41]: 27
Fluorescence intensity w/ trypsin [42]: 53534
Fluorescence intensity w/o trypsin [42]: 2026
ratio w/ trypsin to w/o trypsin [42]: 26
Fluorescence intensity w/ trypsin [43]: 53414
Fluorescence intensity w/o trypsin [43]: 1973
ratio w/ trypsin to w/o trypsin [43]: 27
Fluorescence intensity w/ trypsin [44]: 53190
Fluorescence intensity w/o trypsin [44]: 1985
ratio w/ trypsin to w/o trypsin [44]: 27
Fluorescence intensity w/ trypsin [45]: 52569
Fluorescence intensity w/o trypsin [45]: 1948
ratio w/ trypsin to w/o trypsin [45]: 27
Fluorescence intensity w/ trypsin [46]: 51719
Fluorescence intensity w/o trypsin [46]: 1926
ratio w/ trypsin to w/o trypsin [46]: 27
Fluorescence intensity w/ trypsin [47]: 50705
Fluorescence intensity w/o trypsin [47]: 1905
ratio w/ trypsin to w/o trypsin [47]: 27
Fluorescence intensity w/ trypsin [48]: 49629
Fluorescence intensity w/o trypsin [48]: 1820
ratio w/ trypsin to w/o trypsin [48]: 27
Average ratio w/ trypsin to w/o trypsin (Excitation 553 nm): 25
Fluorescence intensity w/ trypsin [49]: 82385
Fluorescence intensity w/o trypsin [49]: 3301
ratio w/ trypsin to w/o trypsin [49]: 25
Fluorescence intensity w/ trypsin [50]: 85120
Fluorescence intensity w/o trypsin [50]: 3402
ratio w/ trypsin to w/o trypsin [50]: 25
Fluorescence intensity w/ trypsin [51]: 87845
Fluorescence intensity w/o trypsin [51]: 3457
ratio w/ trypsin to w/o trypsin [51]: 25
Fluorescence intensity w/ trypsin [52]: 89719
Fluorescence intensity w/o trypsin [52]: 3658
ratio w/ trypsin to w/o trypsin [52]: 25
Fluorescence intensity w/ trypsin [53]: 91555
Fluorescence intensity w/o trypsin [53]: 3649
ratio w/ trypsin to w/o trypsin [53]: 25
Fluorescence intensity w/ trypsin [54]: 93001
Fluorescence intensity w/o trypsin [54]: 3802
ratio w/ trypsin to w/o trypsin [54]: 24
Fluorescence intensity w/ trypsin [55]: 94046
Fluorescence intensity w/o trypsin [55]: 3827
ratio w/ trypsin to w/o trypsin [55]: 25
Fluorescence intensity w/ trypsin [56]: 94816
Fluorescence intensity w/o trypsin [56]: 3816
ratio w/ trypsin to w/o trypsin [56]: 25
Fluorescence intensity w/ trypsin [57]: 94516
Fluorescence intensity w/o trypsin [57]: 3806
ratio w/ trypsin to w/o trypsin [57]: 25
Fluorescence intensity w/ trypsin [58]: 94662
Fluorescence intensity w/o trypsin [58]: 3962
ratio w/ trypsin to w/o trypsin [58]: 24
Fluorescence intensity w/ trypsin [59]: 93715
Fluorescence intensity w/o trypsin [59]: 3695
ratio w/ trypsin to w/o trypsin [59]: 25
Fluorescence intensity w/ trypsin [60]: 93189
Fluorescence intensity w/o trypsin [60]: 3825
ratio w/ trypsin to w/o trypsin [60]: 24
Fluorescence intensity w/ trypsin [61]: 92281
Fluorescence intensity w/o trypsin [61]: 3736
ratio w/ trypsin to w/o trypsin [61]: 25
Fluorescence intensity w/ trypsin [62]: 91125
Fluorescence intensity w/o trypsin [62]: 3724
ratio w/ trypsin to w/o trypsin [62]: 24
Fluorescence intensity w/ trypsin [63]: 89415
Fluorescence intensity w/o trypsin [63]: 3593
ratio w/ trypsin to w/o trypsin [63]: 25
Fluorescence intensity w/ trypsin [64]: 87910
Fluorescence intensity w/o trypsin [64]: 3449
ratio w/ trypsin to w/o trypsin [64]: 25
fluorescence intensity of the cleaved substrate solution relative to the intact substrate solution (maximum) (excitation 360-553 nm, emission wavelengths from 570 to 585 nm): ≤ 29 times
Substance: TMR-Val-Pro-Arg-Gly-Lys-TMR (XPRGX; not fully specified; TMR dye at both ends) [T-VPRGK-T]
